Experimental data: US20240218057A1 (ROCKEFELLER UNIVERSITY, published 2024)

B1: C896 (antibody, V domains shown)
VH: QVQLVESGGGVVQPGRSLKLSCAASGFTFKTYGMHWVRQAPGKGLEWVAVISYDGTNDYYADSVKGRFTVSRDNSKNTLYLQMNSPRTEDTAVYYCAKAGGPYYYDTSGSFWYFDYWGQGTLVTVSS
VL: DIQMTQSPSSLSASVGDRVTITCRASQTISSYLNWYQQKSGKAPELLVYDASNLESGVPSRFSGSGSGTDFTLTISSLQPEDFATYYCQQSYSFGPGTKVDIK
notes: IgG; V domains only
B2: C952 (antibody, V domains shown)
VH: EVQLVQSGAEVKKPGESLTISCKDSGNSFTIYWIGWVRQMPGKGLEWMGMIYPGDSGTRYSPSFEGQVTISADESINTAYLQWRSLKASDTAMYYCVRGIAVDWYFDLWGRGTLVTVSS
VL: QSVLTQPPSVSGAPGQRVTISCTGSSSNIGAGFDVHWYQQLPGTAPKLLIYGNNNRPSGVPDRFSGSKSATSASLAITGLQAEDEADYYCQSSDSSLSGLYVFGTGTNVIV
notes: IgG; V domains only
B3: C986 (antibody, V domains shown)
VH: EVQLVQSGAEVKKPGETLKISCKGSGDSFSNYWIGWVRQSPGKGLEWMAIVYPGDSDARYSPSFQGQVTISADKSVTTAYLKWSSLKASDTAIYYCVRGLPVDWYFDLWGRGTLVTVSS
VL: QSVLTQPPSVSGAPEQRVTISCTGSSSNIGAGHDVHWYQQLPGTAPKLLIYNNNNRPSGVPDRFSGSKSGASASLAISGLQAEDEAEYYCQSYDKSLSVLYVLGTGTKVTV
notes: IgG; V domains only
B4: C953 (antibody, V domains shown)
VH: QVQLVQSGAEVKKPGSSVKVSCKASGGTFSSYAISWVRQAPGQGLEWMGRIIPILGIANYAQKFQGRVTITADKSTSTAYMELSSLRSEDTAVYYCARDSEYSSSWYSRGYYGMDVWGQGTTVTVSS
VL: not shown
notes: IgG; V domains only
B5: C900 (antibody, V domains shown)
VH: QVQLQESGPGLVKPSGTLSLTCTVSGGSINSRNWWSWVRQPPGKGLEWIGEIFHSGSTNYNPSLESRVAISIDKSHNHFSLKLTSVTAADTAVYYCARANGILDFWGQGTLVTVSS
VL: DIQMTQSPSSLSASVGDRVTITCRASQGISNSLAWYQLKPGKAPKLLLYAASTLESGVPSRFSGSGSGTNFTLTISSLQPEDFASYCCQHYYSSPRTFGQGTKVEI
notes: IgG; V domains only
B6: C878 (antibody, V domains shown)
VH: EVQLVESGGGLVQPGGSLRLSCSVSGFTFSNFAMHWVRQAPGKGLEFVSGVSSDGDITDYADSVKGRFTISRDNSKNTLYLQMSSLRPEDTAVYYCVKDKEHSTMVTIFDFWGQGTLVTVSS
VL: DIQMTQSPSSLSASVGDRVTITCRASQSISSFLNWYQQKPGKAPKLLIYAASSLQSGVPSRFSGRGSGADFTLTITSLQPEDFATYFCQQSYSSHLTFGPGTKVDIK
notes: IgG; V domains only
B7: C893 (antibody, V domains shown)
VH: EVQLVQSGAEVKKPGESLKISCKGSGYYFTRQWIGWVRQMPGKGLEWMGIIYPGDSDTRYSPSFQGQVTISADKSISTAYLQWSSLKASDTAMYYCARGGWDPAEYSSSGGGGLDAFDIWGQGTMVTVSS
VL: EIVLTQSPATLSLSPGERATLSCRASQSVSSYLAWYQQRPGRAPRLLIYDASNRATGIPGRFSGSGSGTDFSLTISSLEPEDFAVYYCQQRSSWPLTFGQGTRLEIK
notes: IgG; V domains only
B8: C902 (antibody, V domains shown)
VH: EVQLVQSGAEVKKPGESLRISCKGSGYSFHTYWIHWVRQMPGKGLEWMGKIDPSDSYTNYSPSFQGHVTFSADRSISTAYLQWSSLKASDTATYYCARLSWSPPTRTTDEKNWFDPWGQGTLVTVSS
VL: DIQLTQSPSFLAASAGDRVTITCRASQGISSYLAWYQQKPGKAPKVLIYAASTLQSGVPSRFSGSGSGTEFTLTISSLQPEDCATYYCQQFNSDPLTFGGGTKVEIK
notes: IgG; V domains only
B9: C887 (antibody, V domains shown)
VH: EVQLVESGGDLVQPGGSLRLSCAASGFTFTTYSMSWVRQAPGKGLEWISYINSGSANIHYADSVKGRFTVSRDNAKNSLYLQMNSLRDEDTAVYYCARGDCLSSSCYSLDYWGQGALVTVSS
VL: DIQMTQSPSSLSASVGDRVTITCRASQSITSYLSWYLQKPGEAPKLLIYAASILQSGVPSRFGGNGSGTDFTLTISSLQPEDFATFYCQQTYRSPLTFGGGTKVEIK
notes: IgG; V domains only
B10: C886 (antibody, V domains shown)
VH: EVQLVESGGDLVQPGGSLRLSCAASGFSVTTNAMAWVRQAPGKGLEWISYINIGSANIQYADSVKGRFTISRDNAKNSLYLQMNSLRDEDTAVYYCARGDCTSSSCYSLDYWGQGALVTVSS
VL: DIQMTQSPSSLSASVGDRVSITCRASQTINTHLSWYLQKPGEAPRLLVYAASTLHSGVPSRFSGSGSGTDFTLTISSLQPEDFATFYCQQTYRFPLTFGGGTKVEIK
notes: IgG; V domains only
B11: C890 (antibody, V domains shown)
VH: QVQLVQSGAEVKKPGSSVKASCKASGGTFSTYTISWVRQAPGHGLEWMGRIIPIFGTTKYAQKFQGRVTITADESTTTAYLELSSLRSEDTAVYYCTINTQWDLVPRWGQGTLVTVSS
VL: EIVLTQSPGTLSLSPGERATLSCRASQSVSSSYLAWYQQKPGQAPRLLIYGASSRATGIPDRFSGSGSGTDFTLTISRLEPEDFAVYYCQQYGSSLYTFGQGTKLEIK
notes: IgG; V domains only
B12: C899 (antibody, V domains shown)
VH: EVQLVESGGGLVKPGGSLRLSCAASGFTFSNAWMSWVRQAPGKGLEWVGRIKSKTDAETTDYAAPVRGRFTISRDNSKNTLYLEMNSLKTEDTAVYYCTTDADYSDSSGYYVTYYFEYWGQGSLVTVSS
VL: QSALTQPRSVSGSPGQSVTISCTGSNSDVGGYNYVSWYQQHPGKAPKLVIYDVSLRPSGVPDRFSGSKSGITASLTISGLQPEDEAHYYCCSFAGTYTPWVFGGGTRLTVL
notes: IgG; V domains only
B13: C895 (antibody, V domains shown)
VH: QVQLVQSGAEVKKPGSSVKVSCKASGGTFTSYAFSWVRQAPGQGLEWMGGIIPIFGTTNYAQKFQGRVTITADESTSTAYMELSSLRSEDTAVYYCARPEGCGSRTSCTPGAYYYGMDVWGQGTTVTVSS
VL: EIVLTQSPATLSLSPGERATLSCRASQSVGSYLAWYQQKPGQAPRLLIYDASNRATGIPARFSGSGSGTDFTLTISSLEPEDFAFYFCQQRNSWPPEYSFGQGTKLEIK
notes: IgG; V domains only
B14: C882 (antibody, V domains shown)
VH: QVQLVESGGGVVQPGRSLRLSCAASGFTFIRYNMHWVRQAPGKGLEWVAVIWYDGSNKYYADSVKGRFTISRDNSKNTLYLQMNSLRAEDTAVYYCARDPMIVVVEMDYWGQGTLVTVSS
VL: DVVMTQSPLSLPVTLGQPASISCNSSQSLVHTDGNTYLNWFQQRPGQSPRRLIYKVSNRDSGVPDRFSGSGSDTDFTLQISRVEADDVGVYYCMQGSHWPYTFGQGTKLEIK
notes: IgG; V domains only
B15: C898 (antibody, V domains shown)
VH: QVQLVQSGAEVKKPGSSVKVSCKASGGPFSSYAFTWVRQAPGQGLEWMGGIIATFGTVNYAQKFQGRVTITADEFTSTVNMELSSLRSDDTAVYYCARRDCSTTSCYDEVLYRLVDWGQGTLVTVSS
VL: EIVLTQSPGTLSLSPGERATLSCRASQSVNSDYLAWYKQKPGQAPRLLIYGTSSRATGIPDRFSGSGSGTDFTLTISRLEPDDFAVYYCQQYGNSPRTFGQGTKVEIK
notes: IgG; V domains only
B16: C901 (antibody, V domains shown)
VH: QVQLVESGGGVVQPGRSLRIACGASGFTFSTYDMHWVRQAPVKGLEWVAVISRDGSGKFYADSVKGRFTISRDNSKKTLYLQMDSLRPEDTAMYYCARDFESRTWDPPKYYYALDVWGQGTTVTVSS
VL: DIQMTQSPSSLSASVGDRVTITCRASQSISTYLNWYQQKPGKAPSLLIYAASSLYSGVPSRFSGSGSGTDFSLTISSLQPEDFATYYCQQTYTTPTWTFGQGTKVEIK
notes: IgG; V domains only
B17: C891 (antibody, V domains shown)
VH: EVQLVESGGGLVKPGGSLRLSCAVSGFTFSNVWMSWVRQAPGKGLEWVGRIKSKTDGGTTDYAAPVKGRFTISRDDSKNTLYLQMNSLKTEDTAVYYCTSQLWLRGPGDYWGQGTLVTVSS
VL: NFMLTQPHSVSESPGKTVTISCTGSSGSIASNYVQWYQQRPGSAPTTVIYEDNQRPSGVPDRFSGSIDSSSNSASLTISGLKTEDEADYYCQSYDSSLNWVFGGGTKLTVL
notes: IgG; V domains only
B18: C892 (antibody, V domains shown)
VH: EVQLVESGGGLVKPGGSLKVSCTASGFTFTDAWMSWVRQAPGKGLEWVGRIKSRAYGGTTDYGAPVQGRFTISRDDSINTLYLQMNSLTAEDTAVYYCTSQLWLRGPGDYWGQGTLVTVSS
VL: NFMLTQPHSVSESPGKTVTISCTGSSGSIASNYVHWYQQRPGGAPTTVIYEDNQRPSGVPDRFSGSIDISSNSASLTISGLKTEDEGDYYCQSYDSGVNWVFGGGTKLTVL
notes: IgG; V domains only
B19: C888 (antibody, V domains shown)
VH: EVQLVESGGGLVQPGGSLRLSCAASGFTVSSNYMSWVRQAPGKGLEWVSVIYSGGSAYYADSVKGRFTISRDNSKNTLYLQMNSLRAEDTAVYYCARDLRDQDGYSYGAFDYWGQGTLVTVSS
VL: QSALTQPASVSGSPGQSITISCTGTSSDVGGYNYVSWYQQHPGKAPKLMIYDVSNRPSGVSNRFSGSKSGNTASLTISGLQAEDEADYYCSSYTSSSSWVFGGGTKLTVL
notes: IgG; V domains only
B20: C889 (antibody, V domains shown)
VH: EVQLVESGGGLVQPGGSLRLSCAVSGFTVSSNYMTWVRQAPGKGLEWVSLIYSGTSAFYADSVKGRFTISRDNSKNTLYLQMSSLRVNDTAIYYCARDLRKDDGYSYGAFDYWGQGTLVTVSS
VL: QSALTQPASVSGSPGQSITISCSGTSSDVGAHNYVSWYQQYPGKAPKLMIFDVTDRPSGVSNRFSGSKSGNTASLTISGLQAEDEADYYCTSYTTNRSWVFGGGTKVTVL
notes: IgG; V domains only
B21: C876 (antibody, V domains shown)
VH: EVQLVESGGGLIQPGGSLRLSCAASEFVISRNYMSWVRQAPKKGLEWVSVLYSGGSTFYADSVKGRFTISRDDSRNMLYLQMNSLRAEDTAVYYCVRDFGEFYFDYWGQGVLVTVSS
VL: EIVMTQSPTTLSVSPGERATLSCRASQSLSSNLAWYQQKPGQAPRLLIFGVSTRATGIPARFSGSGSGTEFTLTISSLQSEDFAVYYCQQYYSGPRTFGQGTKVEIK
notes: IgG; V domains only
B22: C897 (antibody, V domains shown)
VH: QVQLVESGGGVVQPGRSLRLSCAASGFIFSHYGMHWVRQAPGKGLEWVAVILYDGSDQYYADSVKGRFTISRDNSKNTLFLEMNSLRLEDTAVYYCAKGGGQYCSHGNCYLNYFDYWGQGALVTVSS
VL: DIQMTQSPSSLSASVGDRVTITCQASQDIRDNLNWYQQKPGKAPQLLIYDASNLQPGVPSRFSGSGSGTHFTFTISRLQPEDIATYFCQQYANLPTTFGPGTKVDIK
notes: IgG; V domains only

What follows are binders tested against T1, SARS-COV-2 RBD (SARS-COV-2, UniProt P0DTC2 319-539) (assay: ELISA, RBD coated).
T1 construct: also called WT RBD

Q: Which EC50 does the source give for B1 here?
A: 4.3 ng/mL

Q: With B2 as the binder, how does the EC50 read?
A: 2.4 ng/mL

Q: How did the EC50 turn out when B3 was run?
A: 3.36 ng/mL

Q: For B4, which EC50 is on record?
A: 4.09 ng/mL

Q: For B5, which EC50 is on record?
A: 2.54 ng/mL

Q: How did the EC50 turn out when B6 was run?
A: 2.88 ng/mL

Q: Which EC50 does the source give for B7 here?
A: 3.73 ng/mL

Q: How did the EC50 turn out when B8 was run?
A: 3.39 ng/mL

Q: With B9 as the binder, how does the EC50 read?
A: 3.2 ng/mL

Q: With B10 as the binder, how does the EC50 read?
A: 2.48 ng/mL

Q: How did the EC50 turn out when B11 was run?
A: 9.68 ng/mL

Q: Which EC50 does the source give for B12 here?
A: 2.23 ng/mL

Q: How did the EC50 turn out when B13 was run?
A: 2.21 ng/mL

Q: Which EC50 does the source give for B14 here?
A: 2.9 ng/mL

Q: B15 was tested. Which EC50 did it give?
A: 7.6 ng/mL

Q: With B16 as the binder, how does the EC50 read?
A: 2.01 ng/mL

Q: For B17, which EC50 is on record?
A: 2.14 ng/mL

Q: Which EC50 does the source give for B18 here?
A: 1.83 ng/mL

Q: With B19 as the binder, how does the EC50 read?
A: 1.44 ng/mL

Q: B20 was tested. Which EC50 did it give?
A: 0.8 ng/mL

Q: B21 was tested. Which EC50 did it give?
A: 3.53 ng/mL

Q: Which EC50 does the source give for B22 here?
A: 1.88 ng/mL
